Experimental findings from US8460664 (ACADEMIA SINICA, dated 2013) are described below.

Where only a bound is given, the exact number is not on record here.

Experiment [1] deals with mIgE.FcL on transfected Ramos cells (human, UniProt P01854 104-546, limits assumed). As to the kind of experiment: cell-based or functional assay.
The target in another experiment is T1, P3 peptide (human).
T1 peptide: GAGRADWPGPPELDV
As to the kind of experiment: ELISA on coated peptide (500 ng/well). The method, then: (§1) To explore the specificity of anti-CεmX mAbs to CεmX, the various CεmX-specific clones were then tested for reactivity with 3 synthetic peptides, representing 3 consecutive segments of CεmX, divided by a C residue located at residue #18 and a CHC segment at residues #39-41. Specifically, P1 peptide contains the last 4 amino acid residues of CH4 of Mε and first 17 amino acid residues (#1-17), namely, […] (SEQ ID NO:2), of CεmX; P2 peptide contains 20 amino acid residues #19-38, namely, […] (SEQ ID NO:3), of CεmX; P3 peptide contains the terminal 11 amino acid residues (#42-52), namely, […]_(SEQ ID NO:4), of CεmX and first 4 amino acid residues of the consecutive migis region, namely, the N-terminal extracellular region of the membrane anchor peptide of Mε chain. All peptides were synthesized at Genomics Research Center, Academia Sinica (Taipei, Taiwan). The peptides were reconstituted with PBS at a concentration of 10 mg/ml. All peptides were coated on 96-well MaxiSorp plates at 500 ng/well in 0.1M NaCO_3 (pH 9.6) at 4° C. overnight. Coated wells were blocked by 200 μl/well of 1% BSA in PBS at room temperature for 1 hour. Plates were washed three times with 200 μl/well of PBS with 0.05% Tween-20, followed by adding 100 μl of 1 μg/ml anti-CεmX mAbs to wells.
(ELISA stands for enzyme-linked immunosorbent assay.)

The target of experiment [2] is T2, mIgE.FcS on transfected CHO cells (human, UniProt P01854-3 104-494, limits assumed).
T2 construct: domain: CH2 domain through the cytoplasmic end of mεS (CH2-CM), on cells; Lacks the CεmX domain; No coreceptors are present in CHO cells; also called CHO cells expressing mIgE.FcS; mεS(CH2-CM)
T2 sequence (P01854 other isoform, or with tags, fused parts or gaps limits assumed): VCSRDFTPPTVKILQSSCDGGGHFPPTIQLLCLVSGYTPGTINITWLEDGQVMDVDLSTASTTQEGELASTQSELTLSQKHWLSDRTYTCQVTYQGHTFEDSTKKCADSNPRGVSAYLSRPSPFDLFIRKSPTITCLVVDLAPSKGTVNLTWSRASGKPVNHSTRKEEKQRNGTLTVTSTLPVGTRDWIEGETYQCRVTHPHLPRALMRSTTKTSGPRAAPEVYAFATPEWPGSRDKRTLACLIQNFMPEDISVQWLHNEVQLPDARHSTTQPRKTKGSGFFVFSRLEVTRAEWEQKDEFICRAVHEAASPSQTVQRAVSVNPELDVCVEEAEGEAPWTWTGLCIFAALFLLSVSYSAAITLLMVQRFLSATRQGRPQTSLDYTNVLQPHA
As to the kind of experiment: flow cytometry, hybridoma supernatants.
Text: (§2) We further tested the ability of various CεmX-specific monoclonal antibodies to bind to CHO and Ramos cell lines that were transfected with either recombinant DNA encoding mε_{L(CH2-CM)} or mε_{S(CH2-CM)}. […] The transfected two Ramos cell lines respectively produced mIgE.Fc_L or mIgE.Fc_S, both of which form complexes with their native coreceptors. To investigate the binding of anti-CεmX mAbs to native CεmX, CHO or Ramos cells expressing mIgE.Fc_L or mIgE.Fc_S were resuspended in FACS buffer [PBS, 1% FBS, 0.1% sodium azide, and 2 mM EDTA (pH 8.0)] at a cell density of 10^7 cells/ml. 10^6 cells were then incubated for 30 min on ice with 100 μl of hybridoma supernatants, followed by washing with FACS buffer. Bound antibodies were detected by incubation for 30 minutes on ice with FITC-labeled rabbit F(ab')_2 fragment specific for mouse IgG (AbD Secrotec), followed by washing twice with FACS buffer prior to analysis. Flow cytometry experiments were performed using a FACSCanto II flow cytometer (BD Bioscience) and analyzed using FCSExpress software (De Novo Software).

Experiment [3] deals with T3, mIgE.FcS on transfected Ramos cells (human, UniProt P01854-3 104-494, limits assumed).
T3 construct: domain: CH2 domain through the cytoplasmic end of mεS (CH2-CM), on cells; Lacks the CεmX domain; It forms complexes with the native coreceptors of Ramos cells; also called Ramos cells expressing mIgE.FcS; mεS(CH2-CM)
T3 sequence (P01854 other isoform, or with tags, fused parts or gaps limits assumed): as above
In words: flow cytometry, hybridoma supernatants.
Text: as §2

For a further experiment, the target named is T4, P1 peptide (human).
T4 construct: Synthetic peptide
T4 peptide: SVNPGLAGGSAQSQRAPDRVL
In words: ELISA, 1 µg/ml antibody on coated peptide (500 ng/well). The method, then: as §1

mIgE.FcL on transfected Ramos cells, sequence (P01854 104-546 limits assumed): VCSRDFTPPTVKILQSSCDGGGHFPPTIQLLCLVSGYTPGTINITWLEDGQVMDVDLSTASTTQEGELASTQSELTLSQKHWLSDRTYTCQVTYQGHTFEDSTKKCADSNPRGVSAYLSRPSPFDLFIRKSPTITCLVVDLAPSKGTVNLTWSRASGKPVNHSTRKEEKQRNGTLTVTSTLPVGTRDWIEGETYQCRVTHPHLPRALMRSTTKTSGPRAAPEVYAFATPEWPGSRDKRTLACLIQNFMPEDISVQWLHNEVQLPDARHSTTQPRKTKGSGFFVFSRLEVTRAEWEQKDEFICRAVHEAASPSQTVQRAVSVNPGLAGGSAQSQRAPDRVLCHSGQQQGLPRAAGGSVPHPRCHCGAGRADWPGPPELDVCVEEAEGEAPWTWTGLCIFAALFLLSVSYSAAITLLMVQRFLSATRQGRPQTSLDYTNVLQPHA

B1: chimeric 4B12 (antibody, V domains shown)
VH: DVQLQESGPGLVKPSQSLSLTCTVTGYSITSDYAWNWIRQFPGNKLEWMGSISYSGITGYNPSLKSRISVTRDTSKNQFFLQLNSVTTEDTATYYCARMGYDGLAYWGHGTTVTVSA
VL: DVLMTQTPLSLPVSLGDQASISCRSSQSIVHSNGNTYLEWYLQKPGQSPKLLIYKVSNRFSGVPDRFSGSGSGTDFTFKISRVEAEDLGVYYCFQGSHVPPTFGGGTKLEIKR
On to B1, for which, in experiment [1], the “ADCC, specific lysis at an E/T ratio of 50 (antibody 1 µg/ml, PBMC effectors)” value was at most 60%.

B2: mouse monoclonal antibody 4B12 (antibody, V domains shown)
VH: DVQLQESGPGLVKPSQSLSLTCTVTGYSITSDYAWNWIRQFPGNKLEWMGSISYSGITGYNPSLKSRISVTRDTSKNQFFLQLNSVTTEDTATYYCARMGYDGLAYWGHGTTVTVSA
VL: DVLMTQTPLSLPVSLGDQASISCRSSQSIVHSNGNTYLEWYLQKPGQSPKLLIYKVSNRFSGVPDRFSGSGSGTDFTFKISRVEAEDLGVYYCFQGSHVPPTFGGGTKLEIKR
notes: Mouse hybridoma IgG, detected with anti-mouse IgG; also called parental mouse 4B12
For the molecule B2, the binding result with P3 peptide was “no binding (tested: 1 µg/ml)”; in experiment [2], “no binding”; in experiment [3], “no binding”; in the experiment with P1 peptide it was “binds”.
